The values below come from patent US20110293648A1 (LUDWIG INSTITUTE FOR CANCER RESEARCH, published 2011).

Experiment [1] addresses MHC class I. The experiment in a line: flow cytometry, staining of an EBV cell line (internal control). A general note: In flow cytometry, cells or beads pass a laser one at a time.
The target of experiment [2] is HLA-DR. The experiment is described as above.
The target in experiment [3] is T1, HLA-DRB1*0101 (human).
T1 construct: Only the beta allele is printed
The experiment in a line: not specified ('The methods described above').

The target of experiment [4] is T2, HLA-DRB1*1101 (human).
T2 construct: whole, on cells; On antigen presenting cells in the ELISPOT assays
Description: not specified ('The methods described above').

The target in experiment [5] is T3, HLA-DRB1*1501 (human).
T3 construct: whole, on cells; On Me 290 cells in the ELISPOT assay
Description: not specified ('The methods described above').

Experiment [6] addresses T4, HLA-DRB5*0101 (human).
T4 construct: whole, on cells; On Me 290 cells in the ELISPOT assay
The experiment in a line: not specified ('The methods described above').

Experiment [7] concerns the target HLA-DRB1*0301 (human). The experiment in a line: cell-based or functional assay.
The target in experiment [8] is T5, HLA-DRB1*0701 (human).
T5 construct: whole, on cells; On LCL 40 or homozygous EBV line BH in the T cell assays
The experiment in a line: not specified ('The methods described above').

Experiment [9] addresses T6, HLA-DRB1*0301 (human).
T6 construct: whole, on cells; also called DR3; HLA-DR3
The experiment in a line: not specified ('The methods described above').

In experiment [1], anti-pan MHC-I antibody clone W6/32 had an MFI of 271 MFI.
For the molecule anti-HLA-DR antibody clone L243, the MFI in experiment [2] turned out to be 787 MFI.

B1: SSX-2 peptide p98-112 (peptide)
peptide: QMTFGRLQGISPKIM
notes: also called p98-111 (as printed once); SSX-2 98-112
For B1, the binding result in [3], in experiment [4], in experiment [5] and in [6] was “binds” in each case.
With WEKMKSSEKIVYVYM [SSX-4 37-51 peptide], in experiment [7], the “cross-recognition by SSX-2 specific, DR3 restricted CD4+ T cells, peptide titration, IFN-gamma ELISA; efficiency against SSX-2 37-51” value is about 10 fold less efficiently.
As to WEKMKASEKIFIVYM [SSX-5 37-51 peptide], in experiment [7], the “cross-recognition by SSX-2 specific, DR3 restricted CD4+ T cells, peptide titration, IFN-gamma ELISA; efficiency against SSX-2 37-51” value was about 3 fold less efficiently.
Consider FGRLQGISPKIMPKK [SSX-2 peptide p101-115], for which the binding result in [8] and in experiment [9] was “binds” in each case.
